Assay results: US20210238276A1 (INTEGRAL MOLECULAR, published 2021)

Tests used:
Assay in all cases: flow cytometry, alanine-scan library in HEK-293T, with cytochalasin B
hsGLUT4 P66A = biological target: T1, hsGLUT4 P66A (human, UniProt P14672 1-509)
T1 sequence: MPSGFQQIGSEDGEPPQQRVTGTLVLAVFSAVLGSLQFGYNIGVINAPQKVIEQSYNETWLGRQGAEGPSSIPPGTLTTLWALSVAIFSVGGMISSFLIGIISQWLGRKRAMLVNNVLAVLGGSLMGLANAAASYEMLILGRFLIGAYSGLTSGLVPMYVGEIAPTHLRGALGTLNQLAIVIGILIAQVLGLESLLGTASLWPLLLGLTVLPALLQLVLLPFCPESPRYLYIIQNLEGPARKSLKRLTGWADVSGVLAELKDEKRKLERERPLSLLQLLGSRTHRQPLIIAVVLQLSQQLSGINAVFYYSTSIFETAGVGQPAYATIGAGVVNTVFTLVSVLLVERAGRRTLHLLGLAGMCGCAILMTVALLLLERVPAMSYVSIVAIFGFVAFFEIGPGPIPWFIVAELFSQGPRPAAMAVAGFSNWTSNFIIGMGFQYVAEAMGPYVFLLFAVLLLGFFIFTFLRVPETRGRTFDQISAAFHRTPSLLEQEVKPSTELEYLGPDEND
Procedure, shortened: (§1)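 HEK-293T cells expressing individual GLUT4 alanine mutants were stained 48 h post-transfection with anti-GLUT4 scFv MAbs (2 μg/ml), then biotinylated secondary and streptavidin-PerCP, and read by high-throughput flow cytometry. Where used, cytochalasin B (10 uM final) was given for 30 min before and during primary antibody staining.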

hsGLUT4 E162A = biological target: T2, hsGLUT4 E162A (human, UniProt P14672 1-509)
T2 sequence: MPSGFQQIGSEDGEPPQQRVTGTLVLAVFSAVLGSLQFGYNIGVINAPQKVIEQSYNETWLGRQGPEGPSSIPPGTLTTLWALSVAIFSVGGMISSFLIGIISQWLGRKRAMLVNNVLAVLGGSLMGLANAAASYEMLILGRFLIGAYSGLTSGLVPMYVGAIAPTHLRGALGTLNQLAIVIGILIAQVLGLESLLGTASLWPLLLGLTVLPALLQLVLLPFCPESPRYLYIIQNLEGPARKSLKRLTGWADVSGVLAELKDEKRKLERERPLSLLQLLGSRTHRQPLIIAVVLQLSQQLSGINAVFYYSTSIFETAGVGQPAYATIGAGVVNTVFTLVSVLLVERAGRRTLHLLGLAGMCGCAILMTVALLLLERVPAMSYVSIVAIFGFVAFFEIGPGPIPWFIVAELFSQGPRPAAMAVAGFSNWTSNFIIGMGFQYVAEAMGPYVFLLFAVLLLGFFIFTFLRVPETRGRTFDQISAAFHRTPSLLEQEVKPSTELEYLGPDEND
Procedure, shortened: as §1

hsGLUT4 I163A = biological target: T3, hsGLUT4 I163A (human, UniProt P14672 1-509)
T3 sequence: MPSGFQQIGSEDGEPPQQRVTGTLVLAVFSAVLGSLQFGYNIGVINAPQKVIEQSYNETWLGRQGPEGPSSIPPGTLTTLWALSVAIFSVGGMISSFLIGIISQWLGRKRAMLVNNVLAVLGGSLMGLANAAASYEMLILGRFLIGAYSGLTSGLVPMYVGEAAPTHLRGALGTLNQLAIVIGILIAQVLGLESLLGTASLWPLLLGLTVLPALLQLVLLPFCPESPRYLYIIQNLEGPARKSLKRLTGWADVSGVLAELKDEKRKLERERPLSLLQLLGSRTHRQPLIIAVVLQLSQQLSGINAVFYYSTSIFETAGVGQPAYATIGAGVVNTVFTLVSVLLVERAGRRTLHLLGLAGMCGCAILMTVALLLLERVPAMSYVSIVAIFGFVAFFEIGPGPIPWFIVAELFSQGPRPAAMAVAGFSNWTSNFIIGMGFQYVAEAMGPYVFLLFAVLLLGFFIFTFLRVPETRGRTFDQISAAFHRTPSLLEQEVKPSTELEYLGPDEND
Procedure, shortened: as §1

hsGLUT4 F314A = biological target: T4, hsGLUT4 F314A (human, UniProt P14672 1-509)
T4 sequence: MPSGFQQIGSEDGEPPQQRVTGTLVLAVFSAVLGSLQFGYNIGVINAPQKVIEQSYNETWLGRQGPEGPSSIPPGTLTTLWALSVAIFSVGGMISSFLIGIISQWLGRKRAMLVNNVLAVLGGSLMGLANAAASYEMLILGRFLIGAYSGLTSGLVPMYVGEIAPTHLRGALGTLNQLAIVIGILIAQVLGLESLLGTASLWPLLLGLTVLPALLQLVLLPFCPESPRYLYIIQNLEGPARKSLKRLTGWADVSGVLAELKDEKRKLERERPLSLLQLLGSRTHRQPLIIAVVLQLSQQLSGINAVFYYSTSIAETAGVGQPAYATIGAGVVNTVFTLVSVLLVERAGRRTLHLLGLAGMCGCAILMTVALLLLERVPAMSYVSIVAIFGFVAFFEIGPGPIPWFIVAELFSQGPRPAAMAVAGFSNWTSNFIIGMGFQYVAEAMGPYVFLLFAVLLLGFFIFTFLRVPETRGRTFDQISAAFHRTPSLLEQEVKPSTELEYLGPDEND
Procedure, shortened: as §1

B1: AB102 (Fc fusion)
scFv: ALTQPSSVSANLGGTVKITCSGGGSYGYGWYQQKSPGSAPVTVIYSNDQRPSDIPSRFSGSKSGSTATLTITGVRAEDEAIYYCGSTDSDYVGIFGAGTTLTVLGQSSRSSGGGGSSGGGGSAVTLDESGGGLQTPGGTLSLVCKASGFDFSSYATIWVRQAPGKGLEWVAGISGTGTGSSTGYAPAVKGRATISRDNGQSTVRLQLNNLRAEDTGSYFCAKSTGYGDSWIYPDSIDAWGHGTEVIVSS
notes: also called MAb AB102; not shown: Fc fragment of human IgG1, cloned in frame with the scFv
With B1 the “% of binding to wild type GLUT4” value (hsGLUT4 P66A) was 97%, the “% of binding to wild type GLUT4” value (hsGLUT4 E162A) was 7% and the “% of binding to wild type GLUT4” value (hsGLUT4 I163A) was 28%. For the same binder, the “% of binding to wild type GLUT4” value (hsGLUT4 F314A) was 23%.
